Source: the Immune Epitope Database (IEDB)

What was measured:
Experiment in all cases: IEDB peptide-MHC binding, purified MHC/competitive/radioactivity; filed as Kd, often an IC50 or EC50 that approximates it; ≥ and ≤ were set here for values at or beyond the usual limits of such assays
HLA-A*02:03 = target: HLA-A*02:03
HLA-A*02:02 = target: HLA-A*02:02
HLA-A*02:06 = target: HLA-A*02:06
[1] = source organism: Vaccinia virus WR
[2] = source organism: SARS coronavirus Tor2

Sequence | Kd (HLA-A*02:03; [1]) [nM] | Kd (HLA-A*02:02; [1]) [nM] | Kd (HLA-A*02:06; [1]) [nM] | further results
AAIDRQVSV | 18.6 | 933 | 14.9 | 
AIMAVGMVSI |  |  |  | Kd (HLA-A*02:03; source organism: Dengue virus 2 Jamaica/1409/1983): 58 nM
AMHDKKIDI | 1520 | 17200 | ≥ 42000 | 
ATLNTLITLI | 27.9 | 31.5 | 198 | 
CIVQSVLRDI | 158 | 218 | 849 | 
DAKRNSKSLV | 2870 | 13300 | ≥ 52100 | 
DINVIGLIV | 4050 | 9800 | 5530 | 
DLMSSKDDV |  |  |  | Kd (HLA-A*02:06; source organism: Homo sapiens): ≥ 132000 nM
DTDIVNNFIT | 5590 | 8590 | 2310 | 
FLITGVFDI |  |  |  | Kd (HLA-A*02:03; [2]): 0.765 nM; Kd (HLA-A*02:02; [2]): 0.686 nM; Kd (HLA-A*02:06; [2]): 1.48 nM
FLIVAALVFL |  |  |  | Kd (HLA-A*02:03; [2]): 162 nM; Kd (HLA-A*02:02; [2]): 3.02 nM; Kd (HLA-A*02:06; [2]): 3.64 nM
FTSDYPFYV | 3.91 | 2.07 | 3.58 | 
FTYASALWEI |  |  |  | Kd (HLA-A*02:03; [2]): 6.05 nM; Kd (HLA-A*02:02; [2]): 1.6 nM; Kd (HLA-A*02:06; [2]): 2.54 nM
FVKKMLPKII | 1140 | 11100 | 6710 | 
GLSQRHEEKV |  |  |  | Kd (HLA-A*02:06; source organism: Homo sapiens): ≥ 53800 nM
HTKFWISDNT | ≥ 60200 | ≥ 21500 | ≥ 69800 | 
ILNPYMPSVV |  |  |  | Kd (HLA-A*02:03; source organism: Dengue virus 1 Brazil/97-11/1997): 3.26 nM
ILRNYLRLYI | 0.895 | 0.394 | 65 | 
IQYRQQLELA | 8470 | 4320 | ≥ 69800 | 
ITNILGGVL | 2440 | 7380 | ≥ 32400 | 
ITPNNLNKI | 876 | 14600 | 409 | 
IVAAVIIMAI | 2610 | 727 | 4510 | 
IVDKFGKNHI | 5080 | 2930 | 8330 | 
IVTFINDYA | 2960 | 140 | 1150 | 
KIILFLTLI |  |  |  | Kd (HLA-A*02:03; [2]): 4.94 nM; Kd (HLA-A*02:02; [2]): 68.1 nM; Kd (HLA-A*02:06; [2]): 24.3 nM
KIYTLIYRQL | 1030 | 707 | 912 | 
KLISEKETL | ≥ 24700 | 841 | 7650 | 
KLRSSPPIPM | 134 | 57.6 | 2210 | 
KLTLKGMSYV |  |  |  | Kd (HLA-A*02:03; source organism: Dengue virus 1 Singapore/S275/1990): 53.4 nM
